Data: PMC4914107 (Nucleic Acids Research, 2016)

What was measured:
[1] = target: T1, 2XMBP-BRC1-4-DBD (Homo sapiens, UniProt P51587;P51587 993-1589;2153-3418); experiment: EMSA
T1 chain 1: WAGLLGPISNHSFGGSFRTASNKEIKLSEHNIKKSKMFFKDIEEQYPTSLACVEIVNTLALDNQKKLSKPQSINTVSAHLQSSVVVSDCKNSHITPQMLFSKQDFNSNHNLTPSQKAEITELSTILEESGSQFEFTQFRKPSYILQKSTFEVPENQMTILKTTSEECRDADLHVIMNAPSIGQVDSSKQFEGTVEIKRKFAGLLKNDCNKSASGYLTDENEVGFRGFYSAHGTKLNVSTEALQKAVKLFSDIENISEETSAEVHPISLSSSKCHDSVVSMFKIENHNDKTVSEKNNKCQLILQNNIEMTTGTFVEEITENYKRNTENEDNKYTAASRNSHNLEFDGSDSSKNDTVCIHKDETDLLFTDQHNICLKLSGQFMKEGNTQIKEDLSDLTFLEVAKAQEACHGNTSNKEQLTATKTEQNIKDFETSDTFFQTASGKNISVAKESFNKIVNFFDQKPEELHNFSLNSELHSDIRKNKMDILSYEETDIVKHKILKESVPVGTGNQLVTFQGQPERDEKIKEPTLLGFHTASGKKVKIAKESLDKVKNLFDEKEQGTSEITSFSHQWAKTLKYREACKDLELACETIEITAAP
T1 chain 2: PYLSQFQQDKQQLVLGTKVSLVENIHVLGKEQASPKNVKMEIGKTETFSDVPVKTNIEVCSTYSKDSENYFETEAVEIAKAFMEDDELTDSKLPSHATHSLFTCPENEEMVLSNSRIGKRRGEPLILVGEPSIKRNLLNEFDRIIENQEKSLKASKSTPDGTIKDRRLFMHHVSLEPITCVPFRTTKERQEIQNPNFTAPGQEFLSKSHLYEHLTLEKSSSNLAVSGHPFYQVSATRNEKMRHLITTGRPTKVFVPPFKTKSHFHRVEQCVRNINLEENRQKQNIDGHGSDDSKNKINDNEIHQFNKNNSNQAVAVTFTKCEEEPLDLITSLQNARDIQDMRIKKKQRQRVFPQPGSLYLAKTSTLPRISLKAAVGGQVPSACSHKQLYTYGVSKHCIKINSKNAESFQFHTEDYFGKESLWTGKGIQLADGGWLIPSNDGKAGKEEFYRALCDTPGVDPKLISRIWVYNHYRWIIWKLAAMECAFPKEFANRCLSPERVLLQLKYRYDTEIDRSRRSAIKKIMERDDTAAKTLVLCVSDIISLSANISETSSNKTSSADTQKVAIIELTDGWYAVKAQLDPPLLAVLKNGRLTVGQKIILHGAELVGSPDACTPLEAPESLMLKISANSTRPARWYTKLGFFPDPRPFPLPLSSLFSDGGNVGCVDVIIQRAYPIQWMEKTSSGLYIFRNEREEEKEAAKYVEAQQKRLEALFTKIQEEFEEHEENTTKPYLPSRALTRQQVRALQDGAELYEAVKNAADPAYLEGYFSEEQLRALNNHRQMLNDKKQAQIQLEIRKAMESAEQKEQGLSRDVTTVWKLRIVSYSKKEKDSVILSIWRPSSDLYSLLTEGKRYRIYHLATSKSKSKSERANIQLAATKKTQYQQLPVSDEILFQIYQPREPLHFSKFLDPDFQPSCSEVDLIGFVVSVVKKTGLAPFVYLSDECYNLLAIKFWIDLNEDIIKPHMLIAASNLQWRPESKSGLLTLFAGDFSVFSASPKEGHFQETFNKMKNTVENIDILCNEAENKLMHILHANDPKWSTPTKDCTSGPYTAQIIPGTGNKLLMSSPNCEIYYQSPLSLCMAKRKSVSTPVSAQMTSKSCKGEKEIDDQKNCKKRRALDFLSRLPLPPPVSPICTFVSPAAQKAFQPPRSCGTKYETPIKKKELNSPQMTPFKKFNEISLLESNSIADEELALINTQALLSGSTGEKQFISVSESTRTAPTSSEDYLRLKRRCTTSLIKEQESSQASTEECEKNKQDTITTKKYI

[2] = target: 2XMBP-BRC5-8-DBD (Homo sapiens, UniProt P51587 1596-3418); experiment: EMSA
[3] = target: 2XMBP-BRC1-8-DBD (Homo sapiens, UniProt P51587 993-3418); experiment: EMSA
[4] = target: T2, 2XMBP-BRCA2 DBD (Homo sapiens, UniProt P51587 2153-3418); experiment: EMSA
T2 sequence: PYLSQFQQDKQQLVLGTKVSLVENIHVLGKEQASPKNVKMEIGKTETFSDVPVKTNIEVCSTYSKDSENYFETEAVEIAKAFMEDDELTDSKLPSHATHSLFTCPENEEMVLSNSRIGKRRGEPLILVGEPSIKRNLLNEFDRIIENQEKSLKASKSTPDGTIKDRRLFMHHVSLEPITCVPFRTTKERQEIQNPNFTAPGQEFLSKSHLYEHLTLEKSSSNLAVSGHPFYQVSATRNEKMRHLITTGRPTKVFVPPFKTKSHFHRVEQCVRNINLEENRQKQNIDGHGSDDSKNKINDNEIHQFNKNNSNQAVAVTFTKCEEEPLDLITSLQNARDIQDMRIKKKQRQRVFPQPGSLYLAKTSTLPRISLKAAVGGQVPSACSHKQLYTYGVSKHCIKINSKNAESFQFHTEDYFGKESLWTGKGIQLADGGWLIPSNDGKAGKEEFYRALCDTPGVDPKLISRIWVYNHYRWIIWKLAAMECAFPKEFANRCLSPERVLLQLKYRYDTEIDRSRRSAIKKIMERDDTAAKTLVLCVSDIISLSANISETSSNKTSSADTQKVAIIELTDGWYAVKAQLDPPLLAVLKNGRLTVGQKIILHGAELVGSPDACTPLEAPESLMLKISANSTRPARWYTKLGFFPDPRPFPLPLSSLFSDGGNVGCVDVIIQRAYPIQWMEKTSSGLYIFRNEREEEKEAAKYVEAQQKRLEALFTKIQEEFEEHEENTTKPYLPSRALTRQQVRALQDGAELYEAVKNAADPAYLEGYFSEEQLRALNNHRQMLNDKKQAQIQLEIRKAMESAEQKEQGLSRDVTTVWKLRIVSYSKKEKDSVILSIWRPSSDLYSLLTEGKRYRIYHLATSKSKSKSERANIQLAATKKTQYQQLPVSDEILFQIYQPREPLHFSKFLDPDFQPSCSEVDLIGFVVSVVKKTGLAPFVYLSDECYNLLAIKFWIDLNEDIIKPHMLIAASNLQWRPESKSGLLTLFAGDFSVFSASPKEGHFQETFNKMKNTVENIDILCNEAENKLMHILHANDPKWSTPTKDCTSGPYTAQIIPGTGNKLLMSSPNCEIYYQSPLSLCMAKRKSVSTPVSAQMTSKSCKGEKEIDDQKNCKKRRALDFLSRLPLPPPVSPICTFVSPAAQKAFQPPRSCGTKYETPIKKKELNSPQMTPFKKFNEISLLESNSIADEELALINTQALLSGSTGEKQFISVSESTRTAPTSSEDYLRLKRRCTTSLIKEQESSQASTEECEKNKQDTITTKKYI

[5] = target: T3, 2XMBP-BRC4-DBD (Homo sapiens, UniProt P51587;P51587 1496-1589;2153-3418); experiment: EMSA
T3 chain 1: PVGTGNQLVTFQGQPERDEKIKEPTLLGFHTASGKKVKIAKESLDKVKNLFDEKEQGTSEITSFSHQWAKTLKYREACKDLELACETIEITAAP
T3 chain 2: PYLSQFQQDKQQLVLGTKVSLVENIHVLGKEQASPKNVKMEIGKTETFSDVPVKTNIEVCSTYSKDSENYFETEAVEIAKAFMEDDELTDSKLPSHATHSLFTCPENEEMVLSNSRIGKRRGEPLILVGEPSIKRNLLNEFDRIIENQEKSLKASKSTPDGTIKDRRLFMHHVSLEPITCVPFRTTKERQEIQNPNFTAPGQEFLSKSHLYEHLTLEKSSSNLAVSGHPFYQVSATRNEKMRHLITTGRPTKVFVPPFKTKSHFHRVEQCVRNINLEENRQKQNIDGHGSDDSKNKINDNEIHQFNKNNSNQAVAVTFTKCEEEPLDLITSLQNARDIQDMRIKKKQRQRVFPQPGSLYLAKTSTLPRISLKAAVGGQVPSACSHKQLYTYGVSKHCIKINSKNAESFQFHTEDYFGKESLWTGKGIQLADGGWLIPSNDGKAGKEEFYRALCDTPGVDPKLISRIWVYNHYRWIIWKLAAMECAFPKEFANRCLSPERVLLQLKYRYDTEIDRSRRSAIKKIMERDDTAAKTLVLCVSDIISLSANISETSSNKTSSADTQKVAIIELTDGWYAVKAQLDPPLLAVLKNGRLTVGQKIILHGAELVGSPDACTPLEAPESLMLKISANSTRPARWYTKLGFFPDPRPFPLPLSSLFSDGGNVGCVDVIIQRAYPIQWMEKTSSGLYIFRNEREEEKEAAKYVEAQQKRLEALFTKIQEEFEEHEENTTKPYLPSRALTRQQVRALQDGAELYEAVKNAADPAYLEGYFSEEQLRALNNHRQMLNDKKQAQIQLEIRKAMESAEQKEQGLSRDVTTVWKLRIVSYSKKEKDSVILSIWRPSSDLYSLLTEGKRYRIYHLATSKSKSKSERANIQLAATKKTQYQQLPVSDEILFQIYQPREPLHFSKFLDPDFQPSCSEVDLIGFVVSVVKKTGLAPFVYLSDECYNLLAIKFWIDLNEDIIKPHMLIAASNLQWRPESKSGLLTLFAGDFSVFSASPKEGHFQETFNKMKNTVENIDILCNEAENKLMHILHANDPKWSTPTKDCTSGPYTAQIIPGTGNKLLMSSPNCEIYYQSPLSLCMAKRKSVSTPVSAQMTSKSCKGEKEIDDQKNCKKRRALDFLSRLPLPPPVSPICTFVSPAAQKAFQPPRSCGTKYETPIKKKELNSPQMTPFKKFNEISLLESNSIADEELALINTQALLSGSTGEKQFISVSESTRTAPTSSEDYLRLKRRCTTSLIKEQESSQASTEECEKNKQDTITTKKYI

[6] = target: T2, 2XMBP-BRCA2 DBD; experiment: pull-down
[7] = target: RAD51;2XMBP-BRC1-4-DBD (Homo sapiens;Homo sapiens, UniProt Q06609;P51587;P51587 1-339;993-1589;2153-3418, |); experiment: pull-down
[8] = target: RAD51;2XMBP-BRC1-8-DBD (Homo sapiens;Homo sapiens, UniProt Q06609;P51587 1-339;993-3418, |); experiment: pull-down
[9] = target: RAD51;2XMBP-BRC5-8-DBD (Homo sapiens;Homo sapiens, UniProt Q06609;P51587 1-339;1596-3418, |); experiment: pull-down

Measured: binding result

Chain of RAD51;2XMBP-BRC5-8-DBD (Q06609 whole entry, one chain of several): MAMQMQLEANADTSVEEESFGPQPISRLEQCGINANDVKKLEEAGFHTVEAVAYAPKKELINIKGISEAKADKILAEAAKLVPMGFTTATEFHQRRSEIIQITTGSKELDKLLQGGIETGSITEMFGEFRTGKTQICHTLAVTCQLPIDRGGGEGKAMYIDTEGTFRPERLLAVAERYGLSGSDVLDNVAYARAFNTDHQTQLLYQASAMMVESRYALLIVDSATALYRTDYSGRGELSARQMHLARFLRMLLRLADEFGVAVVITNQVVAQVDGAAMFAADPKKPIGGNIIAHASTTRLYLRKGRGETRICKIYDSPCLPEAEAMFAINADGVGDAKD
Chain of RAD51;2XMBP-BRC1-4-DBD (Q06609 whole entry, one chain of several): as above
Chain of RAD51;2XMBP-BRC1-8-DBD (Q06609 whole entry, one chain of several): as above

B1: 3' tail DNA (RJ-167-mer / RJ-PHIX-42-1) (mixed)
DNA 1: CTGCTTTATCAAGATAATTTTTCGACTCATCAGAAATATCCGTTTCCTATATTTATTCCTATTATGTTTTATTCATTTACTTATTCTTTATGTTCATTTTTTATATCCTTTACTTTATTTTCTCTGTTTATTCATTTACTTATTTTGTATTATCCTTATCTTATTTA
DNA 2: CGGATATTTCTGATGAGTCGAAAAATTATCTTGATAAAGCAG
binds: [1] | [2] | [3] | [4] | [5]

B2: biotinylated ssDNA RJ-167-mer (ssDNA)
DNA: CTGCTTTATCAAGATAATTTTTCGACTCATCAGAAATATCCGTTTCCTATATTTATTCCTATTATGTTTTATTCATTTACTTATTCTTTATGTTCATTTTTTATATCCTTTACTTTATTTTCTCTGTTTATTCATTTACTTATTTTGTATTATCCTTATCTTATTTA
binds: [6] | [7] | [8] | [9]
